Reference: article PMC9666628
Where “and” joins values, the source holds several entries; their conditions need not be identical. Equal values may be shown once. Each block holds one substance with its values, some of them ahead of it.

How the values were obtained:
[1] = molecular target: H3K27me3 peptide, FITC-labeled; experiment: fluorescence polarisation; 0.5 nM FITC-labeled peptide, chromodomain serially diluted (wild types 200-0.2 µM; Cbx7.V1 and Cbx.VDs 50 µM-50 nM); 25 °C, 30 min; 25 mM HEPES pH 7.5, 150 mM NaCl, 1 mM DTT, 0.01% TritonX-100; one-site total binding model; values of single replicates
[2] = molecular target: H3K9me3 peptide, FITC-labeled; experiment: as above
[3] = molecular target: Histone H3 H3K9me3 peptide (Homo sapiens) (UniProt P68431); conditions: cited from earlier work
[4] = molecular target: H3K27me3 peptide, N-terminal biotin; experiment: phage ELISA; conditions: read off a plot
[5] = molecular target: H3K27 peptide (non-methylated), N-terminal biotin; experiment: phage ELISA; conditions: read off a plot
[6] = molecular target: H3K9me3 peptide, N-terminal FITC; experiment: fluorescence polarisation; 0.5 nM FITC-labelled peptide; chromodomains 200-0.2 µM (wild type) or 50 µM-50 nM (Cbx7.V1 and all Cbx.VDs); 30 min at 25 °C; 25 mM HEPES pH 7.5, 150 mM NaCl, 1 mM DTT, 0.01% TritonX-100; one-site total binding model
[7] = molecular target: H3K27me3 peptide, N-terminal FITC; experiment: as above
[8] = molecular target: FITC-labeled H3K9me3 peptide; experiment: fluorescence polarisation; 0.5 nM FITC-labeled peptide, chromodomain serially diluted (wild type 200-0.2 µM; Cbx7.V1 50 µM-50 nM); 25 mM HEPES pH 7.5, 150 mM NaCl, 1 mM DTT, 0.01% TritonX-100; 30 min at 25 °C; one-site total binding model

- Kd [1]: 2400 nM and 2100 nM and 4300 nM
- Kd [2]: 4000 nM and 6000 nM and 5000 nM
Substance: Cbx2 chromodomain with the Asp9/Glu33 double substitution (from UniProt Q14781 9-62) (domain or fragment)

Substance: Cbx7 chromodomain (from UniProt O95931)
- Kd [3]: 55000 nM

- Kd [2]: 582 nM and 632 nM and 600 nM
Substance: Cbx1 chromodomain with the Asp9/Glu33 double substitution (from UniProt P83916 20-73) (domain or fragment)

- response (Absorbance at 450 nm) [4]: 0.55
- response (Absorbance at 450 nm) [5]: 0.08
Substance: Cbx7.wt E8H; Q9D; A12P; K33R; G34D; P37E; K38Q

- response (Absorbance at 450 nm) [4]: 0.73
- response (Absorbance at 450 nm) [5]: 0.13
Substance: Cbx7.wt G7F; Q9D; A12P; P37S; K38E

- Kd [2]: 560 nM and 440 nM and 510 nM
Substance: Cbx5 chromodomain with the Asp9/Glu33 double substitution (from UniProt P45973 18-75) (domain or fragment)

- response (Absorbance at 450 nm) [4]: 0.52
- response (Absorbance at 450 nm) [5]: 0.09
Substance: Cbx7.wt G7C; E8D; Q9N; K33E; P37Q; K38E

- Kd [6]: 350 nM
Substance: Cbx3.VD chromodomain, Asp9/Glu33 (tags removed) (from UniProt Q13185 29-86) (domain or fragment)

- Kd [6]: 500 nM
Substance: Cbx5.VD chromodomain, Asp9/Glu33 (tags removed) (from UniProt P45973 18-75) (domain or fragment)

- response (Absorbance at 450 nm) [4]: 0.5
- response (Absorbance at 450 nm) [5]: 0.12
Substance: Cbx7.wt G7C; Q9Y; V10I; A12S; K33E; K38E; S40M

- Kd [2]: 21000 nM and 26000 nM and 16000 nM
Substance: Cbx8 chromodomain with the Asp9/Glu33 double substitution (from UniProt Q9HC52 8-61) (domain or fragment)

- Kd [2]: 390 nM and 290 nM and 370 nM
Substance: Cbx3 chromodomain with the Asp9/Glu33 double substitution (from UniProt Q13185 29-86) (domain or fragment)

- Kd [6]: 600 nM
Substance: Cbx1.VD chromodomain, Asp9/Glu33 (tags removed) (from UniProt P83916 20-73) (domain or fragment)

- response (Absorbance at 450 nm) [5]: 0.12
Substance: Cbx7.wt E8D; Q9D; V10I; K33E; P37L; K38E

- Kd [7]: > 50000 nM
- Kd [6]: 20000 nM
Substance: Cbx8.VD chromodomain, Asp9/Glu33 (tags removed) (from UniProt Q9HC52 8-61) (domain or fragment)

- Kd [8]: 27000 nM
Substance: Cbx7.wt (domain or fragment)

- response (Absorbance at 450 nm) [4]: 1.9
- response (Absorbance at 450 nm) [5]: 0.11
Substance: Cbx7.wt G7C; E8D; Q9N; F11Y; A12P; P37L; K38E

- Kd [7]: 3000 nM
- Kd [6]: 5000 nM
Substance: Cbx2.VD chromodomain, Asp9/Glu33 (tags removed) (from UniProt Q14781 9-62) (domain or fragment)
